Test results: paper PMC7260205, “Steric occlusion regulates proximal interactions of acyl carrier protein domain in fungal fatty acid synthase” (Communications Biology, 2020)

Target: the molecule itself
Assay: cryo-EM structure; FAS1-His6 and FAS2 co-expressed and purified as one complex; 1-2 mg/ml in TBS (50 mM Tris pH 7.4, 150 mM NaCl) on holey gold grids; WT apo or with acetyl-CoA, malonyl-CoA and NADPH; mutants with substrates; D3 symmetrised maps; for H1564A and H740A also symmetry expansion, signal subtraction and focused classification

B1: S. cerevisiae fatty acid synthase FAS2 polypeptide (α-chain), wild type (enzyme)
chain: MKPEVEQELAHILLTELLAYQFASPVRWIETQDVFLKDFNTERVVEIGPSPTLAGMAQRTLKNKYESYDAALSLHREILCYSKDAKEIYYTPDPSELAAKEEPAKEEAPAPTPAASAPAPAAAAPAPVAAAAPAAAAAEIADEPVKASLLLHVLVAHKLKKSLDSIPMSKTIKDLVGGKSTVQNEILGDLGKEFGTTPEKPEETPLEELAETFQDTFSGALGKQSSSLLSRLISSKMPGGFTITVARKYLQTRWGLPSGRQDGVLLVALSNEPAARLGSEADAKAFLDSMAQKYASIVGVDLSSAASASGAAGAGAAAGAAMIDAGALEEITKDHKVLARQQLQVLARYLKMDLDNGERKFLKEKDTVAELQAQLDYLNAELGEFFVNGVATSFSRKKARTFDSSWNWAKQSLLSLYFEIIHGVLKNVDREVVSEAINIMNRSNDALIKFMEYHISNTDETKGENYQLVKTLGEQLIENCKQVLDVDPVYKDVAKPTGPKTAIDKNGNITYSEEPREKVRKLSQYVQEMALGGPITKESQPTIEEDLTRVYKAISAQADKQDISSSTRVEFEKLYSDLMKFLESSKEIDPSQTTQLAGMDVEDALDKDSTKEVASLPNKSTISKTVSSTIPRETIPFLHLRKKTPAGDWKYDRQLSSLFLDGLEKAAFNGVTFKDKYVLITGAGKGSIGAEVLQGLLQGGAKVVVTTSRFSKQVTDYYQSIYAKYGAKGSTLIVVPFNQGSKQDVEALIEFIYDTEKNGGLGWDLDAIIPFAAIPEQGIELEHIDSKSEFAHRIMLTNILRMMGCVKKQKSARGIETRPAQVILPMSPNHGTFGGDGMYSESKLSLETLFNRWHSESWANQLTVCGAIIGWTRGTGLMSANNIIAEGIEKMGVRTFSQKEMAFNLLGLLTPEVVELCQKSPVMADLNGGLQFVPELKEFTAKLRKELVETSEVRKAVSIETALEHKVVNGNSADAAYAQVEIQPRANIQLDFPELKPYKQVKQIAPAELEGLLDLERVIVVTGFAEVGPWGSARTRWEMEAFGEFSLEGCVEMAWIMGFISYHNGNLKGRPYTGWVDSKTKEPVDDKDVKAKYETSILEHSGIRLIEPELFNGYNPEKKEMIQEVIVEEDLEPFEASKETAEQFKHQHGDKVDIFEIPETGEYSVKLLKGATLYIPKALRFDRLVAGQIPTGWNAKTYGISDDIISQVDPITLFVLVSVVEAFIASGITDPYEMYKYVHVSEVGNCSGSGMGGVSALRGMFKDRFKDEPVQNDILQESFINTMSAWVNMLLISSSGPIKTPVGACATSVESVDIGVETILSGKARICIVGGYDDFQEEGSFEFGNMKATSNTLEEFEHGRTPAEMSRPATTTRNGFMEAQGAGIQIIMQADLALKMGVPIYGIVAMAATATDKIGRSVPAPGKGILTTAREHHSSVKYASPNLNMKYRKRQLVTREAQIKDWVENELEALKLEAEEIPSEDQNEFLLERTREIHNEAESQLRAAQQQWGNDFYKRDPRIAPLRGALATYGLTIDDLGVASFHGTSTKANDKNESATINEMMKHLGRSEGNPVIGVFQKFLTGHPKGAAGAWMMNGALQILNSGIIPGNRNADNVDKILEQFEYVLYPSKTLKTDGVRAVSITSFGFGQKGGQAIVVHPDYLYGAITEDRYNEYVAKVSAREKSAYKFFHNGMIYNKLFVSKEHAPYTDELEEDVYLDPLARVSKDKKSGSLTFNSKNIQSKDSYINANTIETAKMIENMTKEKVSNGGVGVDVELITSINVENDTFIERNFTPQEIEYCSAQPSVQSSFAGTWSAKEAVFKSLGVKSLGGGAALKDIEIVRVNKNAPAVELHGNAKKAAEEAGVTDVKVSISHDDLQAVAVAVSTKK
notes: Fatty acid synthase subunit alpha (FAS2 gene product), S. cerevisiae strain BJ2168, gene amplified from genomic DNA into NcoI-digested pET-15b(+); holds the ACP domain (residues 140-302), KR and KS domains; Serine 180 of the ACP domain is called the phosphopantetheine attachment site; No tag is named for FAS2; also called JWL03; holds the ACP domain; source: E. coli BL21, co-expressed with …
binding result: binds
